The text below walks through data of PMC12381745.

Changes are numbered by the printed parent chain. Names may count otherwise.

Assay [1] addresses LHD101B-αLux. Description: split reporter (BiFC, NanoBiT); time-course luminescence; protein-linker-RNA conjugate of A and protein B preincubated until a baseline signal, then RNase A added manually after 30 min; S/B = maximum signal after RNA cleavage divided by the baseline signal.
Assay [2] addresses LHD101B-αLux. Description: split reporter (BiFC, NanoBiT); protein-linker conjugates of protein A with protein B in solution; luminescence relative to the naked cysteine mutant (Figure 2c).
The target of assay [3] is LHD101B-αLux. In words: split reporter (BiFC, NanoBiT); 96-well plate; 2.5 nM BC10 and 2.5 nM B protein with preincubated 100 nM Cas13 and 50 nM crRNA1 in 1x HBS-EP+ buffer, 50 μM LuxSit Pro Substrate; target RNA added after 5 min of baseline; 1 h at room temperature.

B1: LHD101A-βit I61C-L1-RNA protein-linker-RNA conjugate (designed binder)
chain: SELAVVAAIISAVARMGVKMELHPSGNEVKVVIKGLHIKQQRQLYRDVREAAKKAGVEVECEVEGDTVTIVVRG
modifications: here or on the partner: cysteine 61 joined by thiol-maleimide Michael addition to linker L1, whose DBCO is joined by SPAAC to the azide-functionalised 17mer RNA conjRNA1
Take B1: in assay [1], the S/B change (maximum signal after RNA cleavage by RNase A divided by the baseline signal with intact RNA) is over 1.3.

B2: LHD101A-βit E60C-L1 protein-linker conjugate (designed binder)
chain: B1 chain with E60C, C61I
modifications: here or on the partner: cysteine 60 joined by thiol-maleimide Michael addition to linker L1 (maleimide-DBCO, shorter, more rigid)
B2 returned a luminescence signal relative to the naked cysteine mutant in assay [2] of over 20%.

B3: LHD101A-βit G65C-L2-RNA protein-linker-RNA conjugate (designed binder)
chain: B1 chain with C61I, G65C
modifications: here or on the partner: cysteine 65 joined by thiol-maleimide Michael addition to linker L2, whose DBCO is joined by SPAAC to the azide-functionalised 17mer RNA conjRNA1
The molecule B3 had a S/B change (maximum signal after RNA cleavage by RNase A divided by the baseline signal with intact RNA) in assay [1] of over 1.3.

B4: LHD101A-βit G65C-L1-RNA protein-linker-RNA conjugate (designed binder)
chain: B1 chain with C61I, G65C
modifications: here or on the partner: cysteine 65 joined by thiol-maleimide Michael addition to linker L1, whose DBCO is joined by SPAAC to the azide-functionalised 17mer RNA conjRNA1
In assay [1], B4 registered a S/B change (maximum signal after RNA cleavage by RNase A divided by the baseline signal with intact RNA) of over 1.3.

B5: LHD101A-βit I61C-L2-RNA protein-linker-RNA conjugate (designed binder)
chain: B1 chain
modifications: here or on the partner: cysteine 61 joined by thiol-maleimide Michael addition to linker L2, whose DBCO is joined by SPAAC to the azide-functionalised 17mer RNA conjRNA1
In turn, B5 yielded a S/B change (maximum signal after RNA cleavage by RNase A divided by the baseline signal with intact RNA) in assay [1] of over 1.3.

B6: LHD101A-βit E60C-L2 protein-linker conjugate (designed binder)
chain: B1 chain with E60C, C61I
modifications: here or on the partner: cysteine 60 joined by thiol-maleimide Michael addition to linker L2 (maleimide-DBCO, longer, more flexible)
For B6, the luminescence signal relative to the naked cysteine mutant in assay [2] is over 20%.

B7: LHD101A-βit E62C-L2-RNA protein-linker-RNA conjugate (designed binder)
chain: B1 chain with C61I, E62C
modifications: here or on the partner: cysteine 62 joined by thiol-maleimide Michael addition to linker L2, whose DBCO is joined by SPAAC to the azide-functionalised 17mer RNA conjRNA1
B7 displayed a S/B change (maximum signal after RNA cleavage by RNase A divided by the baseline signal with intact RNA) in assay [1] of 1.89.

B8: LHD101A-βit E62C-L1-RNA protein-linker-RNA conjugate (designed binder)
chain: B1 chain with C61I, E62C
modifications: here or on the partner: cysteine 62 joined by thiol-maleimide Michael addition to linker L1, whose DBCO is joined by SPAAC to the azide-functionalised 17mer RNA conjRNA1
Turning to B8, in assay [1], the S/B change (maximum signal after RNA cleavage by RNase A divided by the baseline signal with intact RNA) is 2 and the maximum luminescence signal after RNA cleavage by RNase A turned out to be 100000 RLU. Further, in assay [3], the maximum S/B ratio (signal after RNA cleavage by activated Cas13 divided by the baseline signal with intact RNA) came to 1.6.
